Patent publication US20110086044A1, “Compositions and Methods to Inhibit HPV Infection” (University of Southern California, priority 2009, published 2011)

What was measured:
ANXA2 heterotetramer = biological target: T1, ANXA2 heterotetramer (Homo sapiens, UniProt P07355); test: L2108-120 peptide pulldown assay from Langerhans cells (silver stain, mass spectrometry, immunoblot); format: binding
T1 construct: endogenous in cells; host or cells: human monocyte-derived Langerhans cells (from PBL of healthy donors)
T1 sequence (P07355 2-339 limits assumed): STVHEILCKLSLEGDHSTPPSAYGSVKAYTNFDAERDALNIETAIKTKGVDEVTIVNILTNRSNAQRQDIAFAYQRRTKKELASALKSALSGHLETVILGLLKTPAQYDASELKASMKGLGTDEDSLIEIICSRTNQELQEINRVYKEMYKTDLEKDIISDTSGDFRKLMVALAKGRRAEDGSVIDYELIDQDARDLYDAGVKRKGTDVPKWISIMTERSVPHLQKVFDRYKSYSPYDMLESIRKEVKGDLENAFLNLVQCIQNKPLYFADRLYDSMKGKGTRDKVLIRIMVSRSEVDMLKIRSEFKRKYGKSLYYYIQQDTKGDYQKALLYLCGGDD
T1 sequence (P60903 2-97 partner limits assumed): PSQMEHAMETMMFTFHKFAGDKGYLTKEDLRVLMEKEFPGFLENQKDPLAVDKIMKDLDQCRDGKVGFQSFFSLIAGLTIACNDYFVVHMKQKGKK
Experimental: LC were incubated with either no peptide or 50 μg/5×10^5 cells of 6×His-L2108-120 peptide and subsequently cross-linked with DTSSP. Cells were then lysed and mixed with a Ni-NTA agarose slurry overnight and ten fractions were eluted. Non-reduced eluates were electrophoresed, transferred to nitrocellulose and probed with an anti-ANXA2 antibody or an anti-6×His antibody, followed by a peroxidase-labeled secondary antibody. Antibody binding was detected with enhanced chemiluminescence.
A. LC were incubated with either no peptide or (6×)His-L2108-120 peptide and subsequently cross-linked with DTSSP. Cells were lysed and mixed with a Ni-NTA agarose slurry and eluted. Reduced eluate 5 was electrophoresed and silver stained. The unique band right above ˜39 kDa was isolated and analyzed by mass spectrometry. One representative experiment of two is shown. B. LC were incubated with either no peptide or (6×)His-L2108-120 peptide and subsequently cross-linked with DTSSP. Cells were then lysed and mixed with a Ni-NTA agarose slurry overnight and eluted. Eluates were then electrophoresed, transferred to nitrocellulose and probed with either an anti-ANXA2 or an anti-ANXA2 light chain antibody. […]. One representative experiment of two is shown.
L2108-120 Peptide Pulldown Assay. […] The eluates were collected and analyzed by non-reducing immunoblots and reduced silver stain gels. […]

HPV16L1L2 VLP [1] = test: HPV16L1L2 VLP binding assay on Langerhans cells (flow cytometry, H16.V5 antibody); format: cell-based, human; details: increasing peptide concentrations (1-100 μg)/0.5×10^6 cells, 1 h at 4° C.
Experimental: LC were incubated with increasing concentrations of the L2108-120 peptide and subsequently incubated with HPV16L1L2 VLP. HPV16L1L2 VLP remaining on the surface of LC were detected using a L1 specific conformational antibody (H16.V5). Binding was assessed by flow cytometry.
HPV16L1L2 VLP Binding Assay. LC were incubated with the HPV16 L2 peptide aa 108-120 ([…] SEQ ID NO: 4) (Kawana et al. (2001) J. Virol. 75: 2331-6) at varying concentrations (1-100 μg)/0.5×10^6 cells for 1 h at 4° C. Subsequently, the LC were incubated with 0.25 μg of HPV16L1L2 VLP/treatment for 1 h at 4° C. and then incubated with an anti-L1 (H16.V5) antibody (a gift from Neil Christensen, Penn State University) at a concentration of 1:25,000 for 30 min at 4° C. The cells were then incubated with biotinylated anti-mouse-IgG2b at a concentration of 1:50 for 30 min at 4° C. Next, the HPV16L1L2 VLP/anti-L1/biotin treated cells were stained with streptavidin-FITC at a concentration of 1:50 for 30 min. The cells were washed between each incubation with 135 μl FACS buffer. In control experiments, cells were left untreated or probed with either peptide/anti-L1/biotin-strepavidin-FITC or VLP/anti-L1/biotin-strepavidin-FITC. Finally, HPV16L1L2 VLP binding to LC was assessed by flow cytometry. Binding is calculated as the MFI of the sample divided by the MFI of the untreated control multiplied by 100.

ANXA2 = test: siRNA inhibition of ANXA2 in LC, ANXA2 protein expression by immunoblot; format: cell-based, human; details: Amaxa nucleofection
Experimental: (§1) FIGS. 8A & B are gel pictures showing downregulation of ANXA2 inhibits uptake of HPV16L1L2 VLP. A. LC were transfected using the Amaxa Nucleofector kit without siRNA (Untreated), with control siRNA or with two different ANXA2 siRNA sequences. The cells were incubated for 6 days before analysis of ANXA2 protein expression by immunoblot. GAPDH served as the loading control. One representative experiment of three is shown. B. LC were transfected using the Amaxa Nucleofector kit without siRNA (Untreated), with control siRNA or with ANXA2 siRNA #2. The cells were incubated for 6 days and exposed to CFDA-SE labeled HPV16L1L2 VLP for 15 min. Uptake was assessed by flow cytometry.
(§2) siRNA Inhibition of ANXA2 in LC and HPV16 VLP Uptake Assay. ANXA2 siRNA was synthesized at the USC Genomics Core (Los Angeles, Calif.) based on the sequences: ANXA2 siRNA #1 ([…])/([…]) (SEQ ID NO: 5); ANXA2 siRNA #2 ([…])/([…]) (SEQ ID NO: 6). Control siRNA was from (S76). ANXA2 or Control siRNA was transfected into LC using the Amaxa Human Dendritic Cell Nucleofector kit (Lonza) as directed by the manufacturer's instructions. The cells were incubated for 6 days before they were analyzed by an anti-ANXA2 immunoblot and used in an HPV16 VLP uptake assay. HPV VLP were labeled with CFDA-SE as described above. […] Finally, HPV16 VLP uptake by LC was assessed via flow cytometry.

HPV16L1L2 VLP [2] = test: HPV16L1L2 VLP uptake assay in siRNA-transfected LC (flow cytometry); format: cell-based, human; details: 6 days after transfection, VLP 15 min; compared to untreated and control siRNA treated LC
Experimental: as §1, §2

[3] = cited from earlier work
HPV16L1 VLP = test: HPV16 VLP uptake assay with SLPI: uptake of CFDA-SE labeled HPV16L1 VLP by Langerhans cells (flow cytometry); format: cell-based, human; details: SLPI 30 ug/ml (optimal concentration), VLP 15 min; Example 2
Experimental: (§3) LC were left untreated or incubated with 30 μg human recombinant SLPI (R&D Systems) for 1 h at 4° C. Subsequently, the cells were washed and incubated with CFDA-SE-labeled HPV16 L1 VLP or HPV16 L1L2 VLP at 37° C. After 15 min, cells were washed at 4° C., then fixed with 1% paraformaldehyde and analyzed for intracellular CFDA-SE by flow cytometry. Percent of VLP uptake was calculated using the following equation: [(MFI experimental plus SLPI)−(MFI background)/[(MFI experimental untreated cells)−(MFI background)]×100. Shown is the average uptake of 3 experiments (±SEM). *p=0.04 compared to untreated LC.
(§4) FIGS. 7A & B are charts showing that SLPI inhibits the uptake of HPV16L1L2 VLP by LC. A. LC were incubated with increasing concentrations of SLPI, then incubated with CFDA-SE labeled HPV16L1L2 VLP for 15 min. Uptake of CFDA-SE labeled HPV16L1L2 VLP by LC was assessed by flow cytometry. The mean percentage of uptake ±SEM of three separate experiments is presented (*P<0.05 by a two-tailed, paired t-test, as compared to the negative control). […] Uptake of CFDA-SE labeled HPV16 VLP by LC was assessed by flow cytometry. […]
(§5) HPV16 VLP Uptake Assay with SLPI. […] Finally, HPV16 VLP uptake by LC was assessed via flow cytometry. Percent uptake is calculated as the mean fluorescent intensity (MFI) of the sample divided by the MFI of the untreated control multiplied by 100.

HPV16L1L2 VLP [4] = test: HPV16 VLP uptake assay with SLPI: uptake of CFDA-SE labeled HPV16L1L2 VLP by Langerhans cells (flow cytometry); format: cell-based, human
Experimental: as §3, §4, §5

## LVEETSFIDAGAP (listed as Human papillomavirus) [L2108-120 peptide]
ANXA2 heterotetramer; anti-ANXA2 and anti-ANXA2 light chain antibodies
  proteins in pulldown eluates by immunoblot: both ANXA2 and ANXA2 light chain were present
HPV16L1L2 VLP [1]
  HPV16L1L2 VLP bound to the LC surface: significantly decreased numbers of HPV16L1L2 VLP bound to the LC surface

## (CGGGAUGCUUUGAACAUUGAATT)/(UUCAAUGUUCAAAGCAUCCCGTT) (chemistry not given here) [ANXA2 siRNA #2]
ANXA2
  time of optimal ANXA2 protein knockdown post-transfection: 6 days
HPV16L1L2 VLP [2]
  uptake of HPV16L1L2 VLP into LC: significantly reduced the uptake of HPV16L1L2 VLP into LC

## (6×)His-L2108-120 peptide: 6×His-tagged HPV16 L2 aa 108-120 peptide used for pulldown (HHHHHHLVEETSFIDAGAP)
ANXA2 heterotetramer; 50 μg/0.5×10^6 cells, DTSSP cross-linking, elution 5
  protein pulled down from LC, unique silver-stain band identified by mass spectrometry: predicted to be annexin A2 (ANXA2)

## CCOCc1nc2c(N)nc3ccccc3c2[nH]1 [CL097]
[3]
  water solubility: ≤ 20 mg/mL

B1: SLPI: recombinant human secretory leukocyte protease inhibitor (R&D Systems), serine protease inhibitor and ligand of ANXA2; SEQ ID NO: 2 (protein, listed as Homo sapiens)
chain: MKSSGLFPFLVLLALGTLAPWAVEGSGKSFKAGVCPPKKSAQCLRYKKPECQSDWQCPGKKRCCPDTCGIKCLDPVDTPNPTRRKPGKCPVTYGQCLMLNPPNFCEMDGQCKRDLKCCMGMCGKSCVSPVKA
HPV16L1 VLP
  internalization of HPV16L1 VLP by LC: did not inhibit HPV16L1 VLP uptake
HPV16L1L2 VLP [4]; 30 μg SLPI 1 h at 4° C., then VLP 15 min at 37° C., FIG. 2, 3 experiments
  uptake of HPV16L1L2 VLP into LC: blocks HPV16 L1L2 VLP uptake into LC
HPV16L1L2 VLP [4]; increasing concentrations (5-30 μg/ml) of SLPI, VLP 15 min, Example 2
  internalization of HPV16L1L2 VLP by LC: LC internalized decreasing amounts of HPV16L1L2 VLP
